# Source: US20070274969A1 (published 2007)
# B1: human Bub1, endogenous (enzyme)
# chain: MDTPENVLQMLEAHMQSYKGNDPLGEWERYIQWVEENFPENKEYLITLLEHLMKEFLDKKKYHNDPRFISYCLKFAEYNSDLHQFFEFLYNHGIGTLSSPLYIAWAGHLEAQGELQHASAVLQRGIQNQAEPREFLQQQYRLFQTRLTETHLPAQARTSEPLHNVQVLNQMITSKSNPGNNMACISKNQGSELSGVISSACDKESNMERRVITISKSEYSVHSSLASKVDVEQVVMYCKEKLIRGESEFSFEELRAQKYNQRRKHEQWVNEDRHYMKRKEANAFEEQLLKQKMDELHKKLHQVVETSHEDLPASQERSEVNPARMGPSVGSQQELRAPCLPVTYQQTPVNMEKNPREAPPVVPPLANAISAALVSPATSQSIAPPVPLKAQTVTDSMFAVASKDAGCVNKSTHEFKPQSGAEIKEGCETHKVANTSSFHTTPNTSLGMVQATPSKVQPSPTVHTKEALGFIMNMFQAPTLPDISDDKDEWQSLDQNEDAFEAQFQKNVRSSGAWGVNKIISSLSSAFHVFEDGNKENYGLPQPKNKPTGARTFGERSVSRLPSKPKEEVPHAEEFLDDSTVWGIRCNKTLAPSPKSPGDFTSAAQLASTPFHKLPVESVHILEDKENVVAKQCTQATLDSCEENMVVPSRDGKFSPIQEKSPKQALSSHMYSASLLRLSQPAAGGVLTCEAELGVEACRLTDTDAAIAEDPPDAIAGLQAEWMQMSSLGTVDAPNFIVGNPWDDKLIFKLLSGLSKPVSSYPNTFEWQCKLPAIKPKTEFQLGSKLVYVHHLLGEGAFAQVYEATQGDLNDAKNKQKFVLKVQKPANPWEFYIGTQLMERLKPSMQHMFMKFYSAHLFQNGSVLVGELYSYGTLLNAINLYKNTPEKVMPQGLVISFAMRMLYMIEQVHDCEIIHGDIKPDNFILGNGFLEQDDEDDLSAGLALIDLGQSIDMKLFPKGTIFTAKCETSGFQCVEMLSNKPWNYQIDYFGVAATVYCMLFGTYMKVKNEGGECKPEGLFRRLPHLDMWNEFFHVMLNIPDCHHLPSLDLLRQKLKKVFQQHYTNKIRALRNRLIVLLLECKRSRK
# notes: mature; also called hBub1; Bub1 (U2OS cells)
# B2: mouse Bub1, endogenous (enzyme)
# chain: MDNLENVFRMFEAHMQSYTGNDPLGEWESFIKWVEENFPDNKEYLMTLLEHLMKEFLHKKNYHNDSRFINYCLKFAEYNSDRHQFFEFLYNQGIGTKSSYIYMSWAGHLEAQGELQHASAIFQTGIHNEAEPKELLQQQYRLFQARLTGIHLPAQATTSEPLHSAQILNQVMMTNSSPEKNSACVPKSQGSECSGVASSTCDEKSNMEQRVIMISKSECSVSSSVAPKPEAQQVMYCKEKLIRGDSEFSFEELRAQKYNQRKKHEQWVSEDRNYMKRKEANAFEEQLLKQKMDELHKKLHQVVELSHKDLPASENRPDVSLVCVGQNTCSQQELRGPSLSSISHQTSESSGEKPQEEPSVPLMVNAVNSTLLFPAANLPALPVPVSGQSLTDSRCVNQSVHEFMPQCGPETKEVCETNKVASINDFHTTPNTSLGMVQGTPCKVQPSPTVHTKEALGFIMDMFQAPTLPDISDDKDEWPSLDQNEDAFEAQFQKNAVSSGDWGVKKIMTLSSAFPIFEDGNKENYGLPQPKNKPLGARTFGERSLSKYSSRSNEMPHTDEFMDDSTVCGIRCNKTLAPSPKSIGDFTSAAQLSSTPFHKFPADLVQIPEDKENVVATQYTHMALDSCKENIVDLSKGRKLGPIQEKISASLPCPSQPATGGLFTQEAVFGLEAFKCTGIDHATVEDLSDANAGLQVECVQTLGNVNAPSFTVENPWDDELILKLLSGLSKPVTSYSNTFEWQSKLPAIKTKTEYQLGSLLVYVNHLLGEGAFAQVFEAIHGDVRNAKSEQKCILKVQRPANSWEFYIGMQLMERLKPEVHHMFIKFYSAHLFKNGSILVGELYSYGTLLNVINLYKNTSEKVMPQALVLTFAIRMLYMVEQVHSCEIIHGDIKPDNFILGHRFLEQADEDLATGLALIDLGQSIDMKLFPKGTVFTGKCETSGFQCPEMLSNKPWNYQIDYFGVAATIYCMLFGSYMKVKNEGGVWKPEGLFRRLPHLDMWEEFFHIMLNIPDCHNLPSLDFLRQNMKKLLEQQYSNKIKTLRNRLIVMLSEYKRSRK
# notes: mature; also called mBub1; Bub1 (NIH3T3 cells)
# B3: T antigen deletion mutant dl89-97 (other)
# chain: MDKVLNREESLQLMDLLGLERSAWGNIPLMRKAYLKKCKEFHPDKGGDEEKMKKMNTLYKKMEDGVKYAHQPDFGGFWDATEIPTYGTFNEENLFCSEEMPSSDDEATADSQHSTPPKKKRKVEDPKDFPSELLSFLSHAVFSNRTLACFAIYTTKEKAALLYKKIMEKYSVTFISRHNSYNHNILFFLTPHRHRVSAINNYAQKLCTFSFLICKGVNKEYLMYSALTRDPFSVIEESLPGGLKEHDFNPEEAEETKQVSWKLVTEYAMETKCDDVLLLLGMYLEFQYSFEMCLKCIKKEQPSHYKYHEKYYANAAIFADSKNQKTICQQAVDTVLAKKRVDSLQLTREQMLTNRFNDLLDRMDIMFGSTGSADIEEWMAGVAWLHCLLPKMDSVVYDFLKCMVYNIPKKRYWLFKGPIDSGKTTLAAALLELCGGKALNVNLPLDRLNFELGVAIDQFLVVFEDVKGTGGESRDLPSGQGINNLDNLRDYLDGSVKVNLEKKHLNKRTQIFPPGIVTMNEYSVPKTLQARFVKQIDFRPKDYLKHCLERSEFLLEKRIIQSGIALLLMLIWYRPVAEFAQSIQSRIVEWKERLDKEFSLSVYQKMKFNVAMGIGVLDWLRNSDDDDEDSQENADKNEDGGEKNMEDSGHETGIDSQSQGSFQAPQSSQSVHDHNQPYHICRGFTCFKKPPTPPPEPET
# Assays:
# [1] = biological target: T1, SV40 large T antigen, wild-type (SV40, UniProt P03070 1-708); assay: co-immunoprecipitation from U2OS/T cell lysates
# T1 construct: also called wild-type T antigen; T Ag
# T antigen mutant D44N = biological target: T2, T antigen mutant D44N (SV40, UniProt P03070 1-708); assay: co-immunoprecipitation from U2OS stable lines
# T2 construct: Defective DnaJ domain
# [2] = biological target: T1, SV40 large T antigen, wild-type; assay: co-immunoprecipitation from NIH3T3/T cell lysates
# human Bub1, endogenous = biological target: B1; assay: co-immunoprecipitation from U2OS stable lines
binder,measurement,setting,value
B1,binding result,[1],binds
same,binding result,T antigen mutant D44N,binds
B2,binding result,[2],binds
B3,binding result,"human Bub1, endogenous",no binding
